Results published in patent US20200109196A1 (MOGAM INSTITUTE FOR BIOMEDICAL RESEARCH, published 2020).

T1: recombinant human CEACAM-1/CD66a protein (R&D systems; Cat. No. 2244-CM) (human, UniProt P13688 35-428)
T1 construct: Bought protein; captured on anti-His (His1K) biosensors in the Octet assay, so it carries a His tag; also called HCCM1; recombinant CEACAM-1/CD66a protein
T1 sequence (looked up): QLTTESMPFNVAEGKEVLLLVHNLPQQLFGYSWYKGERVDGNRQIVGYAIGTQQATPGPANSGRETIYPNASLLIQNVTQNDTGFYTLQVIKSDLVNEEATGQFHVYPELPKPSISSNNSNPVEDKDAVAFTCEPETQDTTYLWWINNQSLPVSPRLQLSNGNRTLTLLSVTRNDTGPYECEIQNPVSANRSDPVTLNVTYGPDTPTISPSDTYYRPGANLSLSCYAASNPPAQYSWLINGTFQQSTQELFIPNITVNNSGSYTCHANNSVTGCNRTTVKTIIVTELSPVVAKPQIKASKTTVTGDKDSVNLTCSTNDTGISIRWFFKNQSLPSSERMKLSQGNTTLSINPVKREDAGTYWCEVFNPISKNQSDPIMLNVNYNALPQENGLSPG

T2: human CEACAM1 expressed on the cell surface (CEACAM1-Jurkat T cells); HEK293 cells transfected with human … (human, UniProt P13688 35-526)
T2 construct: whole, on cells; also called CCM1
T2 sequence (looked up): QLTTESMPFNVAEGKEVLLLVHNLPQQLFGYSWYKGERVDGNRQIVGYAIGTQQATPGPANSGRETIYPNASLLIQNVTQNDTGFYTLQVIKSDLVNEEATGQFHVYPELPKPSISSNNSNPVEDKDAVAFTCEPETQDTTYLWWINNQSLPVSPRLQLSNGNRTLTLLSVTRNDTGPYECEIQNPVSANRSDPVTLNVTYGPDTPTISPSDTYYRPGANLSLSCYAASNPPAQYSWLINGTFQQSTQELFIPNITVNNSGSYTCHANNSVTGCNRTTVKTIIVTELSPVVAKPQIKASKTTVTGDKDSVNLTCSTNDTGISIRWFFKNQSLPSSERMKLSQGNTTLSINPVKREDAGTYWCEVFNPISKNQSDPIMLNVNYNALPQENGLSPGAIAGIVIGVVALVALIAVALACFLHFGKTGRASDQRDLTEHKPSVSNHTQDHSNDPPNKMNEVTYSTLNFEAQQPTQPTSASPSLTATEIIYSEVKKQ


Experiments:
[1] = target: T1, recombinant human CEACAM-1/CD66a …; assay: ELISA on coated recombinant CEACAM-1/CD66a (0.25 µg/ml), HRP anti-human IgG, OD450
Procedure: Also, 2.5 μg of the recombinant CEACAM-1/CD66a protein (R&D systems; Cat. No. 2244-CM) was dissolved in 10 ml of PBS, and dispensed into 96-well plate (Nunc; Cat. No. 467679) at 100 μl/well and incubated overnight at 4° C. Thereafter, 300 μl of 1% (v/v) bovine serum albumin was added to each well, which was incubated at 37° C. for 1 hour.
Each of the diluted antibodies was subjected to serial dilutions in PBS at a 1:1 volume ratio for 6 times. Each of the antibodies diluted to 7 concentrations was dispensed into each well at 100 μl/well, which was incubated at 37° C. for 1 hour. Then, each well was washed 3 times with a washing buffer prepared by diluting 10 μl of Tween 20 (Sigma-Aldrich; Cat. No. P9146) in 990 μl of PBS. Thereafter, 2 μl of human IgG conjugated with HRP was diluted in 10 ml of PBS, which was then dispensed into each well at 100 μl/well and incubated for 1 hour.

[2] = target: T2, human CEACAM1 expressed on the cell …; assay: flow cytometry on CEACAM1-Jurkat T cells; reference: the other clones (MFI 8,000)
Procedure: The CEACAM1-Jurkat T cells prepared above were treated with Fc block solution and incubated for 15 minutes. […] Herein, it is noted that the cell numbers were adjusted to 1×10⁵. The cells incubated with the antibodies were repeatedly subjected to the washing procedure of resuspending the cells in a FACS buffer and centrifuging the solution at 1,500 rpm.
PE-conjugated goat anti-human F(ab)₂; (Sigma; Cat. No. P8047)) was diluted in the FACS buffer at a volume ratio of 1:200, and then added to the cells at 100 μl/well. Cells were resuspended well and incubated at 4° C. for 30 minutes in a dark condition.
The cells incubated with the fixation buffer were repeatedly subjected to the washing procedure of resuspending the cells in a FACS buffer, centrifuging the solution at 1,500 rpm, and discarding the supernatant. The washed cells were resuspended in 200 μl of a FACS buffer, and the mean fluorescence intensities (MFIs) of the PE-labeled cells were monitored by a FACS LSR-Fortessa. All FACS analyses were conducted using the FlowJo software.

| Binder | binding result [1] | EC50 (read off the curve) [1] | further results |
| --- | --- | --- | --- |
| C17 (antibody, human IgG4 S228P, lambda, V domains shown) VH: EVQLLESGGGLVQPGGSLRLSCAASGFTFSDYSMSWVRQAPGKGLEWVSVIYPDDGNTYYADSVKGRFTISRDNSKNTLYLQMNSLRAEDTAVYYCARGSIWWLSLIPSSYNAMDVWGQGTLVAVSS VL: QSVLTQPPSASGTPGQRVTISCSGSSSNIGNNAVNWYQQLPGTAPKLLIYANSHRPSGVPDRFSGSKSGTSASLAISGLRSEDEADYYCGAWDASLNGYVFGGGTKLTVLG | binds |  |  |
| C26 (antibody, human IgG4 S228P, lambda, V domains shown) VH: EVQLLESGGGLVQPGGSLRLSCAASGFTFSGYDMSWVRQAPGKGLEWVSWISYGGGSIYYADSVKGRFTISRDNSKNTLYLQMNSLRAEDTAVYYCAKDRLPQKAVRHSYANGMDVWGQGTLVTVSS VL: QSVLTQPPSASGTPGQRVTISCSGSSSNIGNNYVTWYQQLPGTAPKLLIYADSHRPSGVPDRFSGSKSGTSASLAISGLRSEDEADYYCGAWDYSLSGYVFGGGTKLTVLG |  | ~0.3 µg/mL |  |
| C25 (antibody, human IgG4 S228P, lambda, V domains shown, Made in ExpiHEK293F cells, protein A purified. huIgG4 is the isotype control and anti-huIgG4 the detection reagent; the isotype is not otherwise stated; also called anti-CEACAM1 antibody C25) VH: EVQLLESGGGLVQPGGSLRLSCAASGFTFSNYAMSWVRQAPGKGLEWVSVISHGGGSIYYADSVKGRLTISRDNSKNTLYLQMNSLRAEDTAVYYCARDPTKGYAPTFDYWGQGTLVTVSS VL: QSVLTQPPSASGTPGQRVTISCSGSSSNIGNNYVSWYQQLPGTAPKLLIYADSKRPSGVPDRFSGSKSGTSASLAISGLRSEDEADYYCGAWDASLNGYVFGGGTKLTVLG |  | ~0.2 µg/mL |  |
| C15 (antibody, human IgG4 S228P, lambda, V domains shown) VH: EVQLLESGGGLVQPGGSLRLSCAASGFTFSSYSMSWVRQAPGKGLEWVSSISPNGGNKYYADSVKGRFTISRDNSKNTLYLQMNSLGAEDTAVYYCAKDPYNIYQPLFDYWGQGTLVTVSS VL: QSVLTQPLSASGTPGQRVTISCSGSSSNIGNNYVNWYQQLPGTAPKLLIYANSNRPSGVPDRFSGSKSGTSASLAISGLRSEEEADYYCGTWDASLSAYVFGGGTKLTVLG | binds |  |  |
| 4R9_H4-n20 (antibody, human IgG4 S228P, lambda, V domains shown, also called C25-derived clone 4R9_H4-n20) VH: EVQLLESGGGLVQPGGSLRLSCAASGFNFSNYAMSWVRQAPGKGLEWVSVISHGGGSIYYADSVKGRLTISRDNSKNTLYLQMNSLRAEDTAVYYCARDPTKGYAPTFDYWGQGTLVTVSS VL: QSVLTQPPSASGTPGQRVTISCSGSSSNIGNNYVSWYQQLPGTAPKLLIYADSRRPSGVPDRFSGSKSGTSASLAISGLRSEDEADYYCGAWDLSLNGYVFGGGTKLTVLG |  |  | fold MFI against the other clones [2]: 1.5 times |
